Experimental data published in patent US20180215833A1 (published 2018).

T1: llama c-Met ECD (aa 25-932), His tag (Llama glama)
T1 construct: also called Llama glama c-Met
T1 chain: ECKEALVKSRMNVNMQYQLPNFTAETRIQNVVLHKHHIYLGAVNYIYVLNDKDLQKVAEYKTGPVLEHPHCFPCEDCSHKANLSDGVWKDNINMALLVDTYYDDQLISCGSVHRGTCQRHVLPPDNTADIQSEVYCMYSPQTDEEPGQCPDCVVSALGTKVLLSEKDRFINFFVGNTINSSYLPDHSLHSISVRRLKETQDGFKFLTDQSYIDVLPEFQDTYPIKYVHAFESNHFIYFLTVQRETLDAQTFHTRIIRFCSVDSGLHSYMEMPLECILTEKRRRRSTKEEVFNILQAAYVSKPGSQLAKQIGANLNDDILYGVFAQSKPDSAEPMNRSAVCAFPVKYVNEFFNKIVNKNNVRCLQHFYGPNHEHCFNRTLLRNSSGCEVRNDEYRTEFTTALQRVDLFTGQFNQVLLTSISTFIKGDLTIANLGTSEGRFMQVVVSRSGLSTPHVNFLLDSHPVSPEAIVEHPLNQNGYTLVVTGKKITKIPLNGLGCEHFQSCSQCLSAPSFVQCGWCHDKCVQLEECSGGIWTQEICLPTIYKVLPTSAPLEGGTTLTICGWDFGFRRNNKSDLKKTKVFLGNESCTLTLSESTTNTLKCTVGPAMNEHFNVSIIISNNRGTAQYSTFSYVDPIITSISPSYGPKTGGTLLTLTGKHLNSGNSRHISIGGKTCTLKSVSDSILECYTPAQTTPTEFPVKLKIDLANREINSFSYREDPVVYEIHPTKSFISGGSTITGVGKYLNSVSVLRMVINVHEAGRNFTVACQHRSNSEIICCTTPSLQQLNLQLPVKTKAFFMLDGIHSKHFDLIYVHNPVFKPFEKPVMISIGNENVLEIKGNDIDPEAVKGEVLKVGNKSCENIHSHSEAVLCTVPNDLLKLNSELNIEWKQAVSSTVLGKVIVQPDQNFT

T2: human/llama-IPT chimeric c-Met ECD (human; Llama glama, UniProt P08581 25-932)
T2 construct: ranges stand under form; also called human/llama IPT1-4; construct with the human SEMA-PSI
T2 chain: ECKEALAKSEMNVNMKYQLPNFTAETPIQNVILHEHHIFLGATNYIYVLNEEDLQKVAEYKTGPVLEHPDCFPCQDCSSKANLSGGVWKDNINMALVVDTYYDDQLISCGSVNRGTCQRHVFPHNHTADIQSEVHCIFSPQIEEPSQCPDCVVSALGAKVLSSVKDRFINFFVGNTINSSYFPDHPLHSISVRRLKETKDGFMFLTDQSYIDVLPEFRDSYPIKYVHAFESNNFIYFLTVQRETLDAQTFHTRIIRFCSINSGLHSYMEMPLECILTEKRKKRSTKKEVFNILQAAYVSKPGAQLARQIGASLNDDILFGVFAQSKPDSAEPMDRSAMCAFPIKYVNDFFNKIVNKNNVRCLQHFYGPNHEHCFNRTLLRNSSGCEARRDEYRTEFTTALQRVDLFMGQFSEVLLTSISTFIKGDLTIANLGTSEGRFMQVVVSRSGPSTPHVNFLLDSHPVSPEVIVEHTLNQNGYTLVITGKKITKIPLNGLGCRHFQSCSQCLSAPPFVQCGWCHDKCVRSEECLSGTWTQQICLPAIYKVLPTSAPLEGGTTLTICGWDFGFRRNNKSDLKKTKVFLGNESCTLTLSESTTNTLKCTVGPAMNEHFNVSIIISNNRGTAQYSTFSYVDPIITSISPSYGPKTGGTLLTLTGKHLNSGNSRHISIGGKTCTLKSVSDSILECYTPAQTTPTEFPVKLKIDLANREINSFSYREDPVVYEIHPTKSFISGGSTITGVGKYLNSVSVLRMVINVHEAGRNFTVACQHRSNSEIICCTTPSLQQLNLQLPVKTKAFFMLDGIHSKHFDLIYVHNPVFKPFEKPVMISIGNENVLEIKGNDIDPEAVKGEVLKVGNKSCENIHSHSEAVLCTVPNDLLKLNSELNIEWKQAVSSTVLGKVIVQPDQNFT

B1: 36C4 (antibody, V domains shown)
VH: QVQLVESGPGLVKPSQTLSLTCAVSGGSITTNYYYWSWIRQSPGKGLEWMGVIAYDGSTDYSPSLKSRTSISRDTSKNQFSLQLSSVTPEDTAVYYCARDVRVIATGWATANALDAWGQGTLVTVSS
VL: QSVLTQPPSVSGSPGKTVTISCAGTSSDVGYGNYVSWYQQLPGTAPKLLIFAVSYRASGIPDRFSGSKSGNTAFLTISGLQSEDEADYYCASYRSSNNAAVFGGGTHLTVL
notes: also called mAb 36C4; SIMPLE antibody 36C4
B2: LS1 (aa1-98) (receptor)
chain: ECKEALVKSRMNVNMQYQLPNFTAETRIQNVVLHKHHIYLGAVNYIYVLNDKDLQKVAEYKTGPVLEHPHCFPCEDCSHKANLSDGVWKDNINMALLVDTYYDDQLISCGSVNRGTCQRHVFPHNHTADIQSEVHCIFSPQIEEPSQCPDCVVSALGAKVLSSVKDRFINFFVGNTINSSYFPDHPLHSISVRRLKETKDGFMFLTDQSYIDVLPEFRDSYPIKYVHAFESNNFIYFLTVQRETLDAQTFHTRIIRFCSINSGLHSYMEMPLECILTEKRKKRSTKKEVFNILQAAYVSKPGAQLARQIGASLNDDILFGVFAQSKPDSAEPMDRSAMCAFPIKYVNDFFNKIVNKNNVRCLQHFYGPNHEHCFNRTLLRNSSGCEARRDEYRTEFTTALQRVDLFMGQFSEVLLTSISTFIKGDLTIANLGTSEGRFMQVVVSRSGPSTPHVNFLLDSHPVSPEVIVEHTLNQNGYTLVITGKKITKIPLNGLGCRHFQSCSQCLSAPPFVQCGWCHDKCVRSEECLSGTWTQQICLPAIYKVFPNSAPLEGGTRLTICGWDFGFRRNNKFDLKKTRVLLGNESCTLTLSESTMNTLKCTVGPAMNKHFNMSIIISNGHGTTQYSTFSYVDPVITSISPKYGPMAGGTLLTLTGNYLNSGNSRHISIGGKTCTLKSVSNSILECYTPAQTISTEFAVKLKIDLANRETSIFSYREDPIVYEIHPTKSFISGGSTITGVGKNLNSVSVPRMVINVHEAGRNFTVACQHRSNSEIICCTTPSLQQLNLQLPLKTKAFFMLDGILSKYFDLIYVHNPVFKPFEKPVMISMGNENVLEIKGNDIDPEAVKGEVLKVGNKSCENIHLHSEAVLCTVPNDLLKLNSELNIEWKQAISSTVLGKVIVQPDQNFT
notes: Ranges count on mature human c-Met

Experiments:
[1] = biological target: human c-Met on cells (MKN-45, A549, HPAF, BxPC3, NCI-H441) (human, UniProt P08581 25-1390); experiment: cell-based or functional assay
[2] = biological target: T1, llama c-Met ECD (aa 25-932), His tag; experiment: ELISA, 200 ng immobilised c-Met protein
[3] = biological target: T2, human/llama-IPT chimeric c-Met ECD; experiment: ELISA, 200 ng immobilised c-Met protein, mAb titrated
[4] = biological target: LP6 (aa497-909) (human; Llama glama); experiment: ELISA, mAb immobilised, c-Met chimera titrated (EC50 of the chimera)
[5] = biological target: LP7* (aa523-909) (human; Llama glama); experiment: as above
[6] = biological target: Ll10 (aa608-909) (human; Llama glama); experiment: as above
[7] = biological target: Ll11 (aa634-909) (human; Llama glama); experiment: as above
[8] = biological target: Ll8 (aa540-909) (human; Llama glama); experiment: as above
[9] = biological target: Ll9 (aa572-909) (human; Llama glama); experiment: as above
LS1 (aa1-98) = biological target: B2; experiment: as above
Description: An ELISA was run to investigate the binding of the mAbs to the different chimeras.

HGF = biological target: T3, HGF (UniProt P14210 32-728, limits assumed); experiment: SPR, HGF on CM-5 chip, 10 µg/ml c-Met chimera injected
T3 construct: also called hepatocyte growth factor
T3 sequence (P14210 32-728 limits assumed): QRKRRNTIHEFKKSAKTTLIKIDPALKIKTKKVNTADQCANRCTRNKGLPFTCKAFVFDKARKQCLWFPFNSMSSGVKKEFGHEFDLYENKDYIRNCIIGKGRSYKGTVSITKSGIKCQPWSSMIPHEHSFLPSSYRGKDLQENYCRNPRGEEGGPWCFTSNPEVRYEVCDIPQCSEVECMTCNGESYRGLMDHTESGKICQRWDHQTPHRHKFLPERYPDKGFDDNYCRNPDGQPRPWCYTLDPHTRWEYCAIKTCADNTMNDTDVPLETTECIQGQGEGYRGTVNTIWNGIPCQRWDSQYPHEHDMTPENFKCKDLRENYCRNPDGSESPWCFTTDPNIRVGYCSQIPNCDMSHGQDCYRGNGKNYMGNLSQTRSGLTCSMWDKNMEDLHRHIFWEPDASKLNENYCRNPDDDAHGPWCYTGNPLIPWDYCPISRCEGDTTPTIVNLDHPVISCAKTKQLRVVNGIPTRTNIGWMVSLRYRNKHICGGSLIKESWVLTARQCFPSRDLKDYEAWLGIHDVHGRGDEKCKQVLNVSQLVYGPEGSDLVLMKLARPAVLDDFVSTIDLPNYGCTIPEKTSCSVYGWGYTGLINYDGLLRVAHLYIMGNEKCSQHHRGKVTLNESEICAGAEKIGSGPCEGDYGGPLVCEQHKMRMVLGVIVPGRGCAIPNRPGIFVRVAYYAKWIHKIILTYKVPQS
Description: Surface Plasmon Resonance (SPR) was also used to investigate the binding of the mAbs to the different llama-human c-Met chimeras. 3000 RU of 36C4, 48A2 and HGF were coupled on a CM-5 chip in 10 mM NaAc (pH4.5). 60 μl of a 10 μg/ml solution of the different c-Met chimeras was run over the chip at a flow rate of 30 μl/min and the association for 2 min was evaluated. The chip was regenerated with 20 mM NaOH and 1 M NaCl.

B1
ADCC, specific lysis of MKN-45 cells, EC50 [1]: 0.005 µg/mL | antibody-induced proliferation of BxPC3 cells, percentage of the proliferation obtained with 75 ng/ml HGF [1]: < 20% | binding result [2]: no binding | binding result [3]: binds | EC50 [4]: 0.05 µg/mL | EC50 [5]: 0.055 µg/mL | EC50 [6]: 0.047 µg/mL | EC50 [7]: 0.045 µg/mL | EC50 [8]: 0.047 µg/mL | EC50 [9]: 0.047 µg/mL | EC50 (LS1 (aa1-98)): 0.068 µg/mL

B2
binding result (HGF): binds
